Source: paper PMC3229523, “Identification of Lactoferricin B Intracellular Targets Using an Escherichia coli Proteome Chip” (PLoS ONE, 2011)
Ends that are not written are not given here. * marks the point of attachment. Biotin = O=C1N[C@H]2[C@H](CS[C@H]2CCCCC(=O)*)N1

Experiments:
Assay in all cases: peptide or protein array; E. coli proteome chip: purified His-tagged proteins printed in duplicate on Fullmoon slides, blocked with 1% BSA; 10 nM N-terminal biotinylated LfcinB with 1% BSA, room temperature, 1 h; detected with DyLight 649-labeled streptavidin, ratio to DyLight 549-labeled anti-His antibody; ProCAT normalisation, local cut-off; triplicate chips
Settings in all cases: both partners purified
YcgK = target: T1, YcgK (E. coli K-12, UniProt P76002 23-133)
T1 construct: YcgK, E. coli K-12
T1 sequence (looked up): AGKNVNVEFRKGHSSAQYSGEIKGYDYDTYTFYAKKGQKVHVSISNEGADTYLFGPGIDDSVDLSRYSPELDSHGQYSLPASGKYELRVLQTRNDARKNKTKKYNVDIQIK

RcsB = target: T2, RcsB (E. coli K-12, UniProt P0DMC7 1-216)
T2 construct: RcsB, E. coli K-12
T2 sequence (looked up): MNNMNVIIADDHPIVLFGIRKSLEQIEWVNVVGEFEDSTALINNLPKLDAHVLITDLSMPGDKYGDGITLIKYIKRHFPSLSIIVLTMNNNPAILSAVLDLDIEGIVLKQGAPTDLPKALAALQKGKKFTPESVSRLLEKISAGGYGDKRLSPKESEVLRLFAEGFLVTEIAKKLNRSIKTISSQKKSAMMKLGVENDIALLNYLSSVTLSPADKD

GlgS = target: T3, GlgS (E. coli K-12, UniProt P26649 1-66)
T3 construct: GlgS, E. coli K-12
T3 sequence (looked up): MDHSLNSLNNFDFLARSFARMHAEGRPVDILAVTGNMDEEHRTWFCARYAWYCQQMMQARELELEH

YjiL = target: T4, YjiL (E. coli K-12, UniProt P39383 1-255)
T4 construct: YjiL, E. coli K-12
T4 sequence (looked up): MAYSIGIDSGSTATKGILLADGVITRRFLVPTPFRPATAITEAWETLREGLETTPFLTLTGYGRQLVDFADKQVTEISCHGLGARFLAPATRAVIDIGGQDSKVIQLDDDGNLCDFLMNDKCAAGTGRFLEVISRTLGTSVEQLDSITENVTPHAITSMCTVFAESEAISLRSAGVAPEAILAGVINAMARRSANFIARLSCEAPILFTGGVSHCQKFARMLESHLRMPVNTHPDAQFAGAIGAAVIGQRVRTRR

Rob = target: T5, Rob (E. coli K-12, UniProt P0ACI0 1-289)
T5 construct: Rob, E. coli K-12
T5 sequence (looked up): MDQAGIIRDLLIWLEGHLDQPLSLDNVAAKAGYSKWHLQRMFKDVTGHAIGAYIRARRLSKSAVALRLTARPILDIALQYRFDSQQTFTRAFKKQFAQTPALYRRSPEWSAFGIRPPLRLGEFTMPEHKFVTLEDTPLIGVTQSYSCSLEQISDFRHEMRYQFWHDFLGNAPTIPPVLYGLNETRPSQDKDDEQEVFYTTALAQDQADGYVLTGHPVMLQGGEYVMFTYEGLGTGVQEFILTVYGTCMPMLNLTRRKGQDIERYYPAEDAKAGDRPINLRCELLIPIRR

YhdG = target: T6, YhdG (E. coli K-12, UniProt P0ABT5 1-321)
T6 construct: YhdG, E. coli K-12
T6 sequence (looked up): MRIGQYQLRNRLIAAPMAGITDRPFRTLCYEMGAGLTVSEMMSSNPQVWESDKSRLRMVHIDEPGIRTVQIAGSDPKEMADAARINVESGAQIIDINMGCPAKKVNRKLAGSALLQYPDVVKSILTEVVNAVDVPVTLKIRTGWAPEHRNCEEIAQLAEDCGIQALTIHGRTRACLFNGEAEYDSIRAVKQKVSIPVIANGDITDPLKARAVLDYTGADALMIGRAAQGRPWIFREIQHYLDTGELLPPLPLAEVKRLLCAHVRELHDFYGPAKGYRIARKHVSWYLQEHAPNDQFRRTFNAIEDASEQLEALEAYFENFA

YijC = target: T7, YijC (E. coli K-12, UniProt P0ACU5 1-234)
T7 construct: YijC, E. coli K-12
T7 sequence (looked up): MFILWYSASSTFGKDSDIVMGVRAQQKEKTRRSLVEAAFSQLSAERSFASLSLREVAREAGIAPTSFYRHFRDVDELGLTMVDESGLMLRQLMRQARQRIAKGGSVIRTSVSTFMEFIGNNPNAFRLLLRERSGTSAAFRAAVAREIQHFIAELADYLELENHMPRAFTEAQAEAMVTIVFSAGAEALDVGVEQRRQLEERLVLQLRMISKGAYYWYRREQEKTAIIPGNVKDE

Measured: binding result

B1: N-terminal biotinylated Lactoferricin B (peptide, UniProt P24627 36-60, looked up)
peptide: Biotin-FKCRRWQWRMKKLGAPSITCVRRAF
modifications: ends and bridges not checked
notes: lactoferricin B (LfcinB), cationic antimicrobial peptide of 25 amino acids; also called biotinylated LfcinB; biotin-labeled LfcinB; source: bought: Kelowna Inc
binds: all assays above
